Measurements as given in article PMC7337497 (The Journal of Cell Biology, 2020).

B1: GST-mCherry-WIPI3 (natural protein)
chain: not shown
notes: WIPI3, human; synthetic gene; Construct GST-TEV-mCherry-WIPI3; held on glutathione beads in the assay; also called GST-mCherry–tagged WIPI3; source: HEK293 GnTi, transfected, purified; not shown: GST, N-terminal, kept; mCherry, N-terminal, kept
B2: mCherry-Atg21 (natural protein, S. cerevisiae, UniProt Q02887 1-496, looked up)
chain: MKVLQFNQDATCCVVAASSHQISIFNCDPFGKCFEIDTKNSKKKTSNNNGSASNSESRNNEESILITNGSRDRTDAEEEEDNEDNALVTGNILKEGEFVIEMLFSTSLIAIADRGQGLNKGKKLKIVNTKRKCTICEIVFPHEIVDVVMNRKRMCVLLESDQIFIYDISCMKPLETIDLWEDHYKRSQANSFSNASNTGTLEGDSANLNRVATNLLANATQKSVNGSNPSVRTRRNSLRSKIRPRMVLSNDDRSILCFTAYSSPKKNKPNSEALYDVVIYDTLNVTPVNYLNSVHKGNVACLAVSHDGKLLATASDKGTIIRVFHTGVDSDYMSSRSLFKEFRRGTRLCNLYQLAFDKSMTMIGCVGDTDTIHLFKLDDASNSLPGDNSSNGHWNEEEYILASNSNPSMGTPKEIPLSKPRIANYFSKKIKSSIPNQNLSRNFAYITVNESNRSCLGFPDEFPNQVYIASDDGTFSIYSIPSKPGECVLTKNNKFT
notes: also called yeast Atg21; source: E. coli Rosetta pLysS, purified (Ni-NTA, TEV, Superdex 200); not shown: 6xHis, N-terminal, cleaved; mCherry, N-terminal, kept

Key:
[1] = biological target: T1, ATG12–ATG5-ATG16L1-GFP complex (E3-GFP) (human, UniProt O94817 1-140; Q9H1Y0 1-275; Q676U5-1 1-607, conjugated to a lysine residue in ATG5 (ATG12–ATG5 conjugate) | a lysine residue conjugated to ATG12); test: microscopy-based bead protein-protein interaction assay; 500 nM GST-mCherry-WIPI3 or GST-mCherry-WIPI4 and 100 nM E3-GFP with glutathione-coated polystyrene beads; 25 mM Hepes pH 7.5, 150 mM NaCl, 1 mM TCEP; 30 min RT, washed three times, confocal imaging; conditions: both partners purified
T1 construct: ATG12, human; synthetic gene codon optimised for Sf9; conjugated to ATG5 by coexpressed ATG7 and ATG10; ATG5, human; ATG16L1 isoform β, human; Dimer with two copies of each subunit by static light scattering; no TEV cleavage is described for this complex; also called GFP-tagged E3; E3 complex; source: Sf9, coexpressed from one poly-cistronic construct with ATG7 and ATG10, purified (StrepTactin, …)

[2] = biological target: T1, ATG12–ATG5-ATG16L1-GFP complex (E3-GFP); test: microscopy-based bead protein-protein interaction assay; RFP-Trap beads coated with mCherry-WIPI2d, mCherry-Atg21 or mCherry as baits, 5 µM E3-GFP as prey; 25 mM Hepes pH 7.5, 150 mM NaCl, 1 mM DTT; at least 30 min at RT (22°C), confocal imaging; conditions: both partners purified

T1 sequence (O94817 whole entry, chain 1 of 3, canonical isoform): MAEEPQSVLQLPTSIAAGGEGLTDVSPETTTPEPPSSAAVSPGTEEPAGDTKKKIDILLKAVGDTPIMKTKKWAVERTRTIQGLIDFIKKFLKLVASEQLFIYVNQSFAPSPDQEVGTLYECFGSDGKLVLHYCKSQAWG
T1 sequence (Q9H1Y0 whole entry, chain 2 of 3, canonical isoform): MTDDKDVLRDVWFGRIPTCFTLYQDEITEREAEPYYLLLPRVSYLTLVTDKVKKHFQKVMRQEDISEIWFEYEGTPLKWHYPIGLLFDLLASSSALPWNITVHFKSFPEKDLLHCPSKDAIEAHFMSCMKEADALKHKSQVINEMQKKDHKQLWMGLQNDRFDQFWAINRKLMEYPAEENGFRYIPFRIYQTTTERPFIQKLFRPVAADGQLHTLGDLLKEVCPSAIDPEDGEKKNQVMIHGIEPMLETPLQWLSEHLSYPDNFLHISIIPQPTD
T1 sequence (Q676U5 whole entry, chain 3 of 3, canonical isoform): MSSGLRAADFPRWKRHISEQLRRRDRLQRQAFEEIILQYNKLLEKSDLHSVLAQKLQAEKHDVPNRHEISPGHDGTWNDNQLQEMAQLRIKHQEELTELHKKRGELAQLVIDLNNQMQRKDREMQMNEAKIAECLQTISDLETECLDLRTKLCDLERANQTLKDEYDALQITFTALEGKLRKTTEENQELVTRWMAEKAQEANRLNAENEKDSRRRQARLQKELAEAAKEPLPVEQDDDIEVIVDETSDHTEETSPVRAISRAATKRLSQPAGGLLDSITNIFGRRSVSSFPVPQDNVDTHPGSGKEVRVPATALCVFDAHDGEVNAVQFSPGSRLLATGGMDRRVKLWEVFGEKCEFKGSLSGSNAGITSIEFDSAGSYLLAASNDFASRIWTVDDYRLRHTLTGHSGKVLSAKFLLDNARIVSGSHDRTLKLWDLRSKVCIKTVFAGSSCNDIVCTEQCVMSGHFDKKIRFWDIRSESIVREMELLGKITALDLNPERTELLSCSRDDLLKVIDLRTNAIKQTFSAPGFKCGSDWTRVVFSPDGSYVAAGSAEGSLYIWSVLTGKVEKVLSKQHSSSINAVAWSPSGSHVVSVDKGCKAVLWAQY

Binder | binding result [1] | binding result [2]
B1 | binds | –
B2 | – | binds
